What was measured:
Details in all cases: both partners purified
VEGF-A121 = target: T1, VEGF-A121; test: SPR; BIACORE 3000; VEGF-A isoforms amine-coupled on CM5 chip (about 5,000±500 RU), FC1 blank; conbercept injected at eight two-fold dilutions 1.25 nM to 160 nM in HBS buffer (10 mM HEPES, 0.15 M sodium chloride, 3.4 mM EDTA, 0.005% surfactant P20); 1:1 binding with baseline drift model
T1 chain: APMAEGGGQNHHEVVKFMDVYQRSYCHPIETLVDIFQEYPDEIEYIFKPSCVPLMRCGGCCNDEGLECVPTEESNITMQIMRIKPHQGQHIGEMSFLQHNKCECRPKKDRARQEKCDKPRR

VEGF-A165 [1] = target: T2, VEGF-A165; test: as above
T2 chain: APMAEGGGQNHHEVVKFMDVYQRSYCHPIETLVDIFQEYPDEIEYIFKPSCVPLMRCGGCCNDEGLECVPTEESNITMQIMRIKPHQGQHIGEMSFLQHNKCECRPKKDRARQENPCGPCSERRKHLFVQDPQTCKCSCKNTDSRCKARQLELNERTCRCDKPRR

[2] = target: T3, placental growth factor (PlGF) (UniProt P49763 19-221); test: SPR; BIACORE 3000; VEGF-B167 and PlGF immobilized on CM5 chip, FC1 blank; conbercept injected at eight two-fold dilutions 31.25 nM to 4000 nM in HBS buffer
T3 chain: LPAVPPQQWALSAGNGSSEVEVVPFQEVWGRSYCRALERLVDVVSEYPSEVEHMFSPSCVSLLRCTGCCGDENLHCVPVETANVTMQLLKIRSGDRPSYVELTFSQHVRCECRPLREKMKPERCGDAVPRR

VEGF-B167 = target: T4, VEGF-B167 (UniProt P49765-2 22-188); test: as above
T4 construct: VEGF-B, isoform VEGF-B167; source: bought: R&D
T4 sequence (looked up): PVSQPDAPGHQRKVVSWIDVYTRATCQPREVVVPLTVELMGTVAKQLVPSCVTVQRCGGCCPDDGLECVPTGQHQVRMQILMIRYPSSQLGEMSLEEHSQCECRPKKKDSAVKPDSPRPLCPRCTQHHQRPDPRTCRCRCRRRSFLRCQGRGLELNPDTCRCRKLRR

VEGF-A165 [3] = target: T2, VEGF-A165; test: ELISA; antigen (VEGF-A165, VEGF-B167 or PlGF) coated at 4 nM in PBS on PVC plate, blocked with 1% BSA; diluted conbercept added 2 h at room temperature; detected with HRP goat anti-human secondary antibody, absorbance at 450 nm

Kd (VEGF-A121): 5.26 nM
koff (VEGF-A121): 0.00105 s⁻¹
kon (VEGF-A121): 199000 M⁻¹ s⁻¹
Kd (VEGF-A165 [1]): 5.4 nM
koff (VEGF-A165 [1]): 0.00105 s⁻¹
kon (VEGF-A165 [1]): 194000 M⁻¹ s⁻¹
Kd [2]: 51.2 nM
koff [2]: 0.00581 s⁻¹
kon [2]: 114000 M⁻¹ s⁻¹
Kd (VEGF-B167): 81.8 nM
koff (VEGF-B167): 0.00558 s⁻¹
kon (VEGF-B167): 68300 M⁻¹ s⁻¹
EC50 (VEGF-A165 [3]): 0.1 nM
B1: conbercept (Fc fusion)
chain: GRPFVEMYSEIPEIIHMTEGRELVIPCRVTSPNITVTLKKFPLDTLIPDGKRIIWDSRKGFIISNATYKEIGLLTCEATVNGHLYKTNYLTHRQTNTIIDVVLSPSHGIELSVGEKLVLNCTARTELNVGIDFNWEYPSSKHQHKKLVNRDLKTQSGSEMKKFLSTLTIDGVTRSDQGLYTCAASSGLMTKKNSTFVRVHEKPFVAFGSGMESLVEATVGERVRIPAKYLGYPPPEIKWYKNGIPLESNHTIKAGHVLTIMEVSERDTGNYTVILTNPISKEKQSHVVSLVVYVPP
modifications: Human IgG1 Fc carrier left out; it dimerises the chain (copies 2). Limits not printed: VEGFR1 Ig2 and VEGFR2 Ig3-4 taken by convention from decoy-receptor boundaries and entry features. Glycosylated …

Source: paper PMC3741282, “Novel VEGF Decoy Receptor Fusion Protein Conbercept Targeting Multiple VEGF Isoforms Provide Remarkable Anti-Angiogenesis Effect In Vivo” (PLoS ONE, 2013)
